{
  "source": "patent US12116387B2",
  "about": "“Antimicrobial peptides” (priority 2021, dated 2024)",
  "format_in_all_cases": "cell-based",
  "key": {"[1]": {"system": "human red blood cells (hRBCs)", "assay": "Cytotoxicity / hemolysis against human red blood cells", "details": "hRBCs", "quoted_text": "Once the mechanisms by which the peptide targeted bacterial cells was elucidawted, the effect of the pentapeptide motif insertion on cytotoxicity against mammalian cells was evaluated."}, "[2]": {"system": "murine fibroblasts (L929)", "assay": "Cytotoxicity against L929 fibroblasts (MTT)", "details": "L929", "experimental": "Mammalian cells toxicity assays. L929 mice fibroblasts (Rio de Janeiro Cell Bank) and SPCs were seeded in 96-well microtiter plates in a concentration of 1.0×10^5 cells per well, in DMEM medium, supplemented with different concentrations of tested peptides (1-600 μM). After 48 h incubation, a thiazolyl blue tetrazolium bromide (MTT) protocol was performed. Briefly, 60% of the medium was removed, and 10 μL of MTT (5 mg mL^−1) (Sigma, USA) solution was added to each well and the plate was incubated for 4 h, in 5% CO2, at 37° C. The blue formazan product generated was dissolved by the addition of 100 μL of 100% DMSO (Mallinckrodt, Germany) per well. Plates were then gently swirled for 5 min, at room temperature, to dissolve the precipitate. The absorbance was monitored at 575 nm using a microplate spectrophotometer (Bio-Tek, USA). Cytotoxicity was determined as a percentage of the maximum value after subtracting the background. The results were expressed as the percentage of each sample compared to the negative control (PBS buffer, pH 7.4) and cell culture was incubated in a lysis buffer (10 mM Tris, pH 7.4, 1 mM ethylenediamine tetraacetic acid (EDTA), and 0.1% Triton X-100)."}, "[3]": {"system": "murine macrophages monocytes (RAW 264.7)", "assay": "Cytotoxicity against RAW 264.7 cells (MTT)"}, "[4]": {"system": "mouse red blood cells (mRBCs)", "assay": "Hemolysis of mouse red blood cells", "details": "0.5 to 200 μmol L^−1", "experimental": "Hemolysis assays. Hemolytic activity of peptides was determined by using fresh mouse red blood cells (mRBCs), by measuring the peptide-induced changes of the optical density (OD) at 540 nm (Victor X, Perkin-Elmer, Germany), 100% lysis was determined by analysing the supernatant of erythrocytes that had been incubated with Triton X-100 (1%)."}},
  "data": [
    {"substance": "LL-37: human cathelicidin LL-37, used for comparison", "values": [
      {"measurement": "Cytotoxic activity, Peptide Concentration", "setting": "[1]", "result": 87, "unit": "µmol/L"},
      {"measurement": "Cytotoxic activity, Peptide Concentration", "setting": "[2]", "result": 95, "unit": "µmol/L"},
      {"measurement": "Cytotoxic activity, Peptide Concentration", "setting": "[3]; RAW 264.7 (Table 2)", "result": 100, "unit": "µmol/L"},
      {"measurement": "Cytotoxic activity, Peptide Concentration", "setting": "[3]; RAW 264.7, 24 h, 0.5 to 200 μmol L^−1, MTT (Table 6)", "result": 100, "unit": "µmol/L"},
      {"measurement": "Hemolytic activity, Peptide Concentration", "setting": "[4]", "result": 100, "unit": "µmol/L"}
    ]}
  ]
}
